The text below walks through data of paper PMC5733061.

Data set [1] concerns EcFadR (Escherichia coli). The experiment in a line: SPR. As to conditions: SPR: 20 mM Tris-HCl pH 7.5, 200 mM NaCl, 0.005% Tween 20, 25 C, protein 31.25-1000 nM; EMSA: binding buffer composition not given, room temperature, 5 pmol …. (In general: Mobility shift assays separate free from complexed probe on a gel.)
For data set [2], the system named is ValFadR (Vibrio alginolyticus). The experiment in a line: SPR. The following applies: SPR: 20 mM Tris-HCl pH 7.5, 200 mM NaCl, 0.005% Tween 20, 25 C, protein 31.25-1000 nM; EMSA: binding buffer composition not given, room temperature, 5 pmol ….

Turning to fabA probe (SPR), the Kd in data set [1] worked out at 559 nM; in data set [2], 258 nM.

Broadly, the Kd is a measure of binding affinity in units of concentration. Higher therefore signals a looser complex.
